Substrate in this data set: N[C@@H](Cc1c[nH]c2ccccc12)C(=O)O
The data set can be described thus: initial rates of chlorination by UHPLC-UV, Michaelis-Menten fit. As to conditions: 20 mM NaCl, 0.05 mM NADH, 0.01 mM FAD, flavin reductase K12Fre 0.1 μM, phosphate pH 7.5, 25 °C. Format: biochemical, Xenorhabdus szentirmaii.

Here are results for 1 protein from article PMC6823310, “XszenFHal, a novel tryptophan 5-halogenase from Xenorhabdus szentirmaii” (AMB Express, 2019).

B1: XszenFHal (FHal16) (Xenorhabdus szentirmaii DSM 16338) (protein)
chain: MINSVLIVGGGTAGWMTAAYLSKAFDKNINITVVESKEVKKIGVGEATFSTVRHYFDYLGLNESEWLPECSGSYKLGIRFENWDGQGNHFYHPFERWEVVKGFPISEWWLSKKLKDQRFDYDTFLTPHLCEAKRSPRRLDGSLFAQSIDKSLGQSTLAEQRAQYPYAYHFDADGVASFLKRYAMNRGVKHIEDDVTHVEIDTNGNIGYLEAKIYGKLRADLYIDCTGFKGLLINKALNEPFISFSDVLKNNRAVALRVPRENENDIEPYTTARTMSNGWRWTIPLYKRNGYGYVYCNKYQSPEEAEMELRKSIPYENAECVANHIRMRIGRSNRSWVKNCVAIGLSSAFVEPLESTGIFFIQHGIEQLVRFFPRSSGNELLIEEYNTRVNRVVDGVKEFLLLHFSLAQRNDTLYWKEWKNVELPKELLKKITLAQDHLLDKETIYPFYHGFEEYSWNTMILGLCSGSLNNKPALSLMTSDEADEMLLQHYMKAENMVNNLPTCYEYLKHIHDLKNKN
notes: N-terminal His tag (modified pET22b(+)), expressed in E. coli BL21-CodonPlus (DE3)-RIPL
In the case of B1, the Km – broadly, the substrate concentration at which the rate is half of its maximum – worked out at 58.22 µM; the turnover number (kcat) (as a rule, the number of substrate molecules converted per active site and unit of time at saturation) came to 0.074 s⁻¹.
